15 sequences from the DeepSol protein solubility set can be followed below.

The nature of this data set: soluble on expression in E. coli; label from the status in PepcDB or PDB records.
For the sequence “MFGGSAPKPSIFGGTAATTTASSGFSFGNSSTSTANTGGNTNTTGGFSFGSAQPSTGSTGLFGNSTATGSMFGGSSAAAPAPASAGIFGNSGAAAPAPASTSIFGSSANSAAPATVTFGASAPSAGAGMFGANKPAAPTGGLFGSSTSTATTAPTGGLFGSSTAAPSSGLFGSTAAPAAPGGLFGSTSTSTAAPSGGLFGSSAAPTSTAPAPSGGLFGAAPATSNAAPTSGLFGNSAPAATASSGGLFGAAPKPAAPSGGLFGSTAPATTAATTTATSGLFGAPTSAPSSAPATGGLFGASTAPAAATGGLFSIGAASASTPSVGLFGNSSASTTAAAAPATAPAAASTGGLFGATTAAAAAPTSSTTGGLFGSTAAAPAASLPTGGLFGSSTPAKTPAAPTAGLFGASSTTTTSAPATGSLFGTAPATTTATSAAPAASTGGLFGASSTTTPASTAPTGGLFGAATTTAPAAAAPTGGLFGAATTTAPATVGPTGGLFGAATTTTPATAATLGQTPSTVSATPSLPTTTSTTSTLPKPAEATPTLGLGLGLTSTPLAKGTGWTTSGLKGAATTSAGLKIGASGSDTLSEEEIKAGLGGNDTKAFFTALQEVVNSYHSEIAKQERVFHNKMLELNAYDRELITLEPKVLGLYNEMDDLSGSCKKLHFNVASMTSVLNDIEQNVVELENKLSLPEWHTLDYKFPLDSRFASRHDVQRVQIAQMMLNVDSQMKCADFDLDQITKSLNTMQSTVLKTKTETPLEKTELIMKKQLQKLMDLSTQHDATRDKLNKLKDDHNLKTNNSSKA”, the “soluble on expression in E. coli” value is given as “not soluble”.
Consider “MFGLKVKNAEADTAKSNEKLQGAEATGSSTTSGSGQSTQRGGSSGDTKVKALQVAVKKKSGSQGNSGDQGTEQVELESNDLANAPIKRGSNPASPTQGSRLRHHPIQFGIWSIRHPHPLKAVACDRANSQGPPQMIRLDPHSVRCALCL”, for which the “soluble on expression in E. coli” value is “soluble”.
With “MFGRQVGRVVFRTASVVVQRRSVSASVPQMVKLVAPSVNFIQTRGSKIEVFGPFDPPKQLTFKQVEDRVLKAVRSWDRFPADKESLLKLDADLSKDFGFDSLDQVEIVMALEDEFGFEIPLQDSDKFKTIRDAFKYICEREDVYE”, the “soluble on expression in E. coli” value was “not soluble”.
As for “MFGWRGRIGLIVPSSNTTMEMELHSFLPEGVSLHTSRMPLKSITDEELFKMNSYAIEAASLLADAGVEVIAFGCSSGSFIGGQDFEKELEMKIEEEVNIETFTTSTAVLEALDVLDAQSLLIVTPYSDEINQKEKEFLEGNGFEVLDIKGLNLTDNLEIGKLEPYVVYRLAKAMFAGDADAIFISCTNLRTFEIIEKLERDLGVPVITSNQATLWMALRQIDVRDQLPLGKLLREY”, the “soluble on expression in E. coli” value is “soluble”.
As to “MFHGKHPGGLSERGRALLLEGGKALGLDLKPHLEAFSRLYALLQEASGKVNLTALRGEEEVVVKHFLDSLTLLRLPLWQGPLRVLDLGTGAGFPGLPLKIVRPELELVLVDATRKKVAFVERAIEVLGLKGARALWGRAEVLAREAGHREAYARAVARAVAPLCVLSELLLPFLEVGGAAVAMKGPRVEEELAPLPPALERLGGRLGEVLALQLPLSGEARHLVVLEKAALTSLAYPRRPGVPERHPLC”, the “soluble on expression in E. coli” value is “soluble”.
With “MFIDTLIEKIREKDNPSVVGLDPKIEYVPSFIKEDMYKKYGKNLKAVAEAILLFNKYIIDAVYDIVPAVKPQLAYYEMYGLEGMRVFYETCKYAKEKGLLVIADGKRNDIGSTAQCYSAAYLGKTDIDEGISEAVFDVDALTVNPYLGVDGIKPFIDDCVKYNKGIFVLVKTSNKSSGEIQDILTQEGRSIYEIVAEYVESWGENKKGKYGYSCVGAVVGATYPNLAKILRKILKNSYILVPGYGAQGGTARDVAHCFNYDGLGAIVNASRSIMCAYKSEQWKNVYSEEKFYEASRAEAIRMRDDINSALRDRK”, the “soluble on expression in E. coli” value was “not soluble”.
For “MFIKIFLITYRYKLTVISIIGGGTIGSSIAIPLKRSGFEVIVTRRNTAVLKHLESYGISVMSDNKTASKEADVVFLTLKPVDIIPEVRKIEENIRGKLLISMAAAIPLKLIKDAAPHSIVVRAMTNIAAKVGAGFTPFCVDDGDQEVAKRASSILSALGEVYLVEEKYMDALTALSGSGPAYILTIIEAMMYGGLKLGLPRDLALKASYQTVMGSAKLLAESGEHPSELKEKVITPGGTTIDGIYELEDARVRTAIMKAIEVSTMKANKISESIKKLEQLEHHHHHH”, the “soluble on expression in E. coli” value is “not soluble”.
In the case of “MFKKLFGLGSKTNEETIVAPLTGAVKNIEEVPDPVFAGRMMGDGVAIDPTEGVVVSPVDGEIVQLFHTKHAIGIKAKNGTEILIHVGLETVKMEGEGFEAHVSEGQAVKAGDKLISFDLELIREKAKSTITPIVITNTDAAESIKTTVGVTATKGSTEVMKVTMK” it was “not soluble”; in that of “MFLDRERELQFLERRYEMGGPEFIVIYGRRRVGKTALLLEFISRHGGIYLLARETSNLENLKRFSDRLSEYFGDDFLKRNPFQNWDAFLEYLNQKATERLVVVIDEFPYLVKGDRSLPSILQEYWDLKLSNGRIFLIICGSSISMMEKLLGYKSPIYGRRTGQINLKPVDFLHAREFLPGYSLEDFIKAYGILGGSPAHLLEFDDSKTIKENLLEYLRSDSLLYQDAFFVLREELEEPRNYFAIMEAVAAGKTSLGEIMNETGLSRATVAKYLSVLIELDFVKREIPITASRKSRRGRYYIKDNYFAFWFRYIHPNIDFIESERRKELLELIIDDLPNYLGGIFENVAIEFLPLISNKLPFKPLKIGRWWHKNEEIDLVAFNEKEEKAILIEVKWKTLNKIEANKILKDLNRKSKILKMKEWEQYHGIIAKRVKDKEKIKGGLIWDLEDIENLKFSPELEHHHHHH”, “not soluble”.
In the case of “MFLKVRAEKRLGNFRLNVDFEMGRDYCVLLGPTGAGKSVFLELIAGIVKPDRGEVRLNGADITPLPPERRGIGFVPQDYALFPHLSVYRNIAYGLRNVERVERDRRVREMAEKLGIAHLLDRKPARLSGGERQRVALARALVIQPRLLLLDEPLSAVDLKTKGVLMEELRFVQREFDVPILHVTHDLIEAAMLADEVAVMLNGRIVEKGKLKELFSAKNGEVAEFLSARNLLLKVSKILD” it was “soluble”.
Regarding “MFLLKQIGVIRSPFKSPSECPFQGRFSQERFTIELFPEYEEGLKDIETCTHLIVLYWLDRANRDRLIAIPPFDKREHGVFATRSPHRPNPIGFSVVKLLEVRGRELVVEGLDAVDGTPVVDIKPYSSKIDCVENARIGWFEEV”, the “soluble on expression in E. coli” value is given as “soluble”.
In the case of “MFMIKVITPETNHPKEGGILSALVSIYNCTIHIRKPRFTADQYKKYLHDHNQLLSHFVLHEHHSLAKEFPVMGVHLKELDRINPAQVHPDIKIISTSIHSIADAGNLSHPFEYIFYSPLFQSISKENYGTNNSLADLKKTVSELKEQTGIPIIGLGGIYEANIDLVKKSGFDGAALLGAVWVQSDPLAAFGRIASMILEHHHHHH” it was “not soluble”.
In the case of “MFNCLTKLVILVCLKYVAKALLNRSTGLIMKDKPEGVHHIKSCSDSSSRIWYSLWMNIAFCGGLGPTSIFDPCFLTSSAPSPPSAPALAIPAAAPPLPTSVPAGAGVEAGAGAETVSSSLMIFSSFFLYN” it was “soluble”.
In the case of “MFNYSGLNEECGVFGIWNHPEAAQLTYMGLHSLQHRGQEGAGIVVSDQNELKGERGLGLLTEAIKDDQMERLKGYQHAIGHVRYATSGNKGIENIQPFLYHFYDMSVGICHNGNLINAKSLRQNLEKQGAIFHSSSDTEVIMHLIRRSKAPTFEEALKESLRKVKGGFTFAILTKDALYGAVDPNAIRPLVVGKMKDGTYILASETCAIDVLGAEFVQDIHAGEYVVINDKGITVKSYTHHTTTAISAMEYIYFARPDSTIAGKNVHAVRKASGKKLAQESPVNADMVIGVPNSSLSAASGYAEEIGLPYEMGLVKNQYVARTFIQPTQELREQGVRVKLSAVKDIVDGKNIILVDDSIVRGTTIRRIVKMLKDSGANKVHVRIASPEFMFPSFYGIDVSTTAELISASKSPEEIKDYIGADSLAYLSVDGLIESIGLDYDAPYSGLCVESFTGDYPAGLYDYEANYKAHLSHRQKQYISKNKHFFDSEGNLNV” it was “not soluble”.
Regarding “MFPMNYSLIDLSAIECPESDLFIEGVVLAANLATRPLDPEQWLPELFTEQHQALLQPVTEQIHRQYQLLKGNGYDLLALLAEHAPSRKQGLADFAEGFMQLWPQVEPMWQQGAFADGSIRMLQALLTTLMLAIDEAQTQAQMREAGYEQVPALADLIEQLNLMVHEVALAADEAMLGAKAQSVNPFKGIGRNDACPCDSGKKFKQCCGQ”, the “soluble on expression in E. coli” value was “not soluble”.
